Values of other authors as cited in patent publication US20230210827A1, “METHODS AND COMPOSITIONS FOR TREATING ANEMIA USING ACTRIIB LIGAND TRAPS AND MTOR INHIBITORS” (Celgene Corporation, priority 2020, published 2023).

Columns and labels:
GDF-11 = target: T1, GDF-11 (Homo sapiens, UniProt O95390); conditions: ActRIIB variants; background statements
T1 sequence (O95390 299-407): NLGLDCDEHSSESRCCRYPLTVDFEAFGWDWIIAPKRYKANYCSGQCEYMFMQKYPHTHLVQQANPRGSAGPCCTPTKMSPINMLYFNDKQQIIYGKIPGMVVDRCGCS

activin = conditions: ActRIIB variants; background statements

| Molecule | affinity for / binding to GDF-11 (GDF-11) | affinity for / binding to activin (activin) |
| --- | --- | --- |
| L79A: ActRIIB extracellular domain polypeptide with L79A mutation (protein, UniProt Q13705 19-137, looked up, variant L79A, extracellular domain, ActRIIB extracellular domain polypeptide with L79A mutation) extracellular domain: SGRGEAETRECIYYNANWELERTNQSGLERCEGEQDKRLHCYASWRNSSGTIELVKKGCWADDFNCYDRQECVATEENPQVYFCCCEGNFCNERFTHLPEAGGPEVTYEPPPTAPTLLT | reduce GDF-11 binding to a greater extent than activin binding |  |
| L79E: ActRIIB extracellular domain polypeptide with L79E mutation (protein, UniProt Q13705 19-137, looked up, variant L79E, extracellular domain, ActRIIB extracellular domain polypeptide with L79E mutation) extracellular domain: SGRGEAETRECIYYNANWELERTNQSGLERCEGEQDKRLHCYASWRNSSGTIELVKKGCWEDDFNCYDRQECVATEENPQVYFCCCEGNFCNERFTHLPEAGGPEVTYEPPPTAPTLLT | retain GDF-11 binding | greatly reduced activin binding |
| L79P: ActRIIB extracellular domain polypeptide with L79P mutation (protein, UniProt Q13705 19-137, looked up, variant L79P, extracellular domain, ActRIIB extracellular domain polypeptide with L79P mutation) extracellular domain: SGRGEAETRECIYYNANWELERTNQSGLERCEGEQDKRLHCYASWRNSSGTIELVKKGCWPDDFNCYDRQECVATEENPQVYFCCCEGNFCNERFTHLPEAGGPEVTYEPPPTAPTLLT | reduce GDF-11 binding to a greater extent than activin binding |  |
| A64: Fc fusion protein having ActRIIB extracellular sequence with alanine at position 64 of SEQ ID NO:2 (protein, fusion protein comprising a soluble extracellular domain of ActRIIB (A64; SEQ ID NO 3) fused to an Fc domain) SGRGEAETRECIYYNANWELERTNQSGLERCEGEQDKRLHCYASWANSSGTIELVKKGCWLDDFNCYDRQECVATEENPQVYFCCCEGNFCNERFTHLPEAGGPEVTYEPPPTAPTGGGTHTCPPCPAPELLGGPSVFLFPPKPKDTLMISRTPEVTCVVVDVSHEDPEVKFNWYVDGVEVHNAKTKPREEQYNSTYRVVSVLTVLHQDWLNGKEYKCKVSNKALPVPIEKTISKAKGQPREPQVYTLPPSREEMTKNQVSLTCLVKGFYPSDIAVEWESNGQPENNYKTTPPVLDSDGSFFLYSKLTVDKSRWQQGNVFSCSVMHEALHNHYTQKSLSLSPGK | relatively low affinity | relatively low affinity |
| R64: Fc fusion protein with an arginine at position 64 of the ActRIIB precursor amino acid sequence (protein, fusion protein comprising a soluble extracellular domain of ActRIIB (R64; SEQ ID NO15) fused to an Fc domain) SGRGEAETRECIYYNANWELERTNQSGLERCEGEQDKRLHCYASWRNSSGTIELVKKGCWLDDFNCYDRQECVATEENPQVYFCCCEGNFCNERFTHLPEAGGPEVTYEPPPTAPTGGGTHTCPPCPAPELLGGPSVFLFPPKPKDTLMISRTPEVTCVVVDVSHEDPEVKFNWYVDGVEVHNAKTKPREEQYNSTYRVVSVLTVLHQDWLNGKEYKCKVSNKALPVPIEKTISKAKGQPREPQVYTLPPSREEMTKNQVSLTCLVKGFYPSDIAVEWESNGQPENNYKTTPPVLDSDGSFFLYSKLTVDKSRWQQGNVFSCSVMHEALHNHYTQKSLSLSPGK | low nanomolar to high picomolar range | low nanomolar to high picomolar range |
| L79D: ActRIIB extracellular domain polypeptide with L79D mutation (protein, listed as Homo sapiens, human ActRIIB precursor protein sequence (A64), ActRIIB extracellular domain polypeptide with L79D mutation) MTAPWVALALLWGSLWPGSGRGEAETRECIYYNANWELERTNQSGLERCEGEQDKRLHCYASWANSSGTIELVKKGCWDDDFNCYDRQECVATEENPQVYFCCCEGNFCNERFTHLPEAGGPEVTYEPPPTAPTLLTVLAYSLLPIGGLSLIVLLAFWMYRHRKPPYGHVDIHEDPGPPPPSPLVGLKPLQLLEIKARGRFGCVWKAQLMNDFVAVKIFPLQDKQSWQSEREIFSTPGMKHENLLQFIAAEKRGSNLEVELWLITAFHDKGSLTDYLKGNIITWNELCHVAETMSRGLSYLHEDVPWCRGEGHKPSIAHRDFKSKNVLLKSDLTAVLADFGLAVRFEPGKPPGDTHGQVGTRRYMAPEVLEGAINFQRDAFLRIDMYAMGLVLWELVSRCKAADGPVDEYMLPFEEEIGQHPSLEELQEVVVHKKMRPTIKDHWLKHPGLAQLCVTIEECWDHDAEARLSAGCVEERVSLIRRSVNGTTSDCLVSLVTSVTNVDLPPKESSI | retain GDF-11 binding | greatly reduced activin binding |
| ActRIIB(20-119)-Fc: ActRIIB-Fc fusion protein containing amino acids 20-119 of SEQ ID NO:14 (SEQ ID NO:18) (protein, human ActRIIB soluble (extracellular), processed polypeptide sequence with the C-terminal 15 aa deleted (aa 20-119 of SEQ ID NO14)) GRGEAETRECIYYNANWELERTNQSGLERCEGEQDKRLHCYASWRNSSGTIELVKKGCWLDDFNCYDRQECVATEENPQVYFCCCEGNFCNERFTHLPEA | reduced binding to GDF-11 and activin | reduced binding to GDF-11 and activin |
